From patent US20220160843A1 (priority 2019, published 2022)
Like-named read-outs stand apart in the source and are kept apart here.

Tests used:
[1] = system: carbapenem-resistant P. aeruginosa strains; experiment: Resensitization of carbapenem-resistant clinical strains using carbapenems in combination with lysins; assay type: cell-based; conditions: for MIC: Pseudomonas aeruginosa, meropenem alone (GN121 checkerboard)
Description: (§1) The checkerboard assays is based on a modification of the CLSI method for MIC determination by broth microdilution (26, 29). Checkerboards were constructed by first preparing columns of a 96-well polypropylene microtiter plate, in which each well had the same amount of antibiotic diluted 2-fold along the horizontal axis. […] Summation fractional inhibitory concentrations (ΣFICs) were calculated for each drug and the minimum ΣFIC value (ΣFICmin) was used to determine synergy. ΣFICs were calculated as follows: ΣFIC=FIC A+FIC B, where FIC A is the MIC of each antibiotic in the combination/MIC of each antibiotic alone, and FIC B is the MIC of each GN lysin in the combination/MIC of each GN lysin alone. The combination is considered synergistic when the ΣFIC is ≤0.5, strongly additive when the ΣFIC is >0.5 to <1, additive with the ΣFIC is 1−<2, and antagonistic when the ΣFIC is ≥2.
Up to seven carbapenem-resistant isolates were assessed. […] See Clinical and Laboratory Standards Institute (CLSI), CLSI. […] M100 Performance Standards for Antimicrobial Susceptibility Testing; 29th Edition. Clinical and Laboratory Standards Institute, Wayne, Pa.

P. aeruginosa [2] = experiment: Minimal inhibitory concentration (MIC), modified CLSI broth microdilution in CAA or CAA/HuS; assay type: cell-based, Pseudomonas aeruginosa; conditions: for MIC (μg/mL) in CAA: CAA media; for MIC (μg/mL in CAA/HuS) / MIC value in CAA/HuS: CAA supplemented with 25% human serum
[3] = system: P. aeruginosa strain ATCC 17647; experiment: Minimal Biofilm Eradicating Concentration (MBEC), Calgary Biofilm Device; assay type: cell-based, Pseudomonas aeruginosa; conditions: 24 h biofilm, 24 h treatment; minimum concentration removing >95% of biofilm biomass (crystal violet)
Description: All samples were examined in triplicate.

P. aeruginosa [4] = experiment: Time-kill assay of GN lysin activity; assay type: cell-based, Pseudomonas aeruginosa; conditions: for Log10 CFU/mL T = 3 hr / Log10 CFU/mL T = l hr: lysin 10 μg/mL, T = 0 7.8; for Log10 CFU/mL T = 3 hr: buffer control 7.2, limit of detection 3.7; for Log10 CFU/mL T = l hr: buffer control 7.7
Description: All treatments were incubated at 37° C. with aeration.

[5] = system: carbapenem-resistant clinical strain, WC-452; experiment: Checkerboard assay to examine synergy with antibiotics in CAA/HuS; assay type: cell-based, P. aeruginosa
Description: Fractional inhibitor concentration index (FICI) values were determined for all combinations; values of <0.5 indicate synergy.
as §1

[6] = CAA/HuS, ‡ indicates bactericidal activity
[7] = HEPES buffer, ‡ indicates bactericidal activity

## C[C@@H](O)[C@H]1C(=O)N2C(C(=O)O)=C(SCCN=CN)C[C@H]12 [Imipenem, imipenem, reference compound]
[1]; isolate PA19, imipenem in combination with GN121
  IMIPENEM MIC Combination: 1 (S) μg/mL
[1]; isolate PA19, imipenem in combination with GN123
  IMIPENEM MIC Combination: 0.5 (S) μg/mL
[1]; isolate PA20, imipenem in combination with GN121
  IMIPENEM MIC Combination: 0.5 (S) μg/mL
[1]; isolate PA20, imipenem in combination with GN123
  IMIPENEM MIC Combination: 1 (S) μg/mL
[1]; isolate PA21, imipenem in combination with GN121
  IMIPENEM MIC Combination: 1 (S) μg/mL
[1]; isolate PA21, imipenem in combination with GN123
  IMIPENEM MIC Combination: 0.5 (S) μg/mL
[1]; isolate PA22, imipenem in combination with GN121
  IMIPENEM MIC Combination: 2 (S) μg/mL
[1]; isolate PA22, imipenem in combination with GN123
  IMIPENEM MIC Combination: 2 (S) μg/mL
[1]; isolate PA23, imipenem in combination with GN123
  IMIPENEM MIC Combination: 0.25 (S) μg/mL
[1]; isolate PA24, imipenem in combination with GN121
  IMIPENEM MIC Combination: 1 (S) μg/mL
[1]; isolate PA24, imipenem in combination with GN123
  IMIPENEM MIC Combination: 2 (S) μg/mL
[1]; isolate WC-452, imipenem in combination with GN123
  IMIPENEM MIC Combination: 1 (S) μg/mL

## C[C@@H](O)[C@H]1C(=O)N2C(C(=O)O)=C(S[C@@H]3CN[C@H](C(=O)N(C)C)C3)[C@H](C)[C@H]12 [Meropenem, meropenem, reference compound]
[1]; GN121, read-out: Meropenem MIC Alone, isolate PA19
  MIC: 32 µg/mL
[1]; GN121, read-out: Meropenem MIC Alone, isolate PA21
  MIC: 32 µg/mL
[1]; GN121, read-out: Meropenem MIC Alone, isolate PA22
  MIC: 16 µg/mL
[1]; GN121, read-out: Meropenem MIC Alone, isolate PA23
  MIC: 16 µg/mL
[1]; GN121, read-out: Meropenem MIC Alone, isolate PA24
  MIC: 32 µg/mL
[1]; GN121, read-out: Meropenem MIC Alone, isolate WC-452
  MIC: 16 µg/mL
[1]; isolate PA19, meropenem in combination with GN121
  Meropenem MIC Combination: 1 µg/mL
[1]; isolate PA19, meropenem in combination with GN123
  Meropenem MIC Combination: 0.5 (S) μg/mL
[1]; isolate PA20, meropenem in combination with GN121
  Meropenem MIC Combination: 1 µg/mL
[1]; isolate PA20, meropenem in combination with GN123
  Meropenem MIC Combination: 0.5 (S) μg/mL
[1]; isolate PA21, meropenem in combination with GN121
  Meropenem MIC Combination: 2 µg/mL
[1]; isolate PA21, meropenem in combination with GN123
  Meropenem MIC Combination: 1 (S) μg/mL
[1]; isolate PA22, meropenem in combination with GN121
  Meropenem MIC Combination: 1 µg/mL
[1]; isolate PA22, meropenem in combination with GN123
  Meropenem MIC Combination: 1 (S) μg/mL
[1]; isolate PA23, meropenem in combination with GN121
  Meropenem MIC Combination: 2 µg/mL
[1]; isolate PA23, meropenem in combination with GN123
  Meropenem MIC Combination: 0.5 (S) μg/mL
[1]; isolate PA24, meropenem in combination with GN121
  Meropenem MIC Combination: 1 µg/mL
[1]; isolate PA24, meropenem in combination with GN123
  Meropenem MIC Combination: 2 (S) μg/mL
[1]; isolate WC-452, meropenem in combination with GN121
  Meropenem MIC Combination: 1 µg/mL
[1]; isolate WC-452, meropenem in combination with GN123
  Meropenem MIC Combination: 1 (S) μg/mL

B1: GN146: Modified GN4, amino acid substitutions (K99D, R115H), SEQ ID NO: 4 (protein)
chain: MRTSQRGIDLIKSFEGLRLSAYQDSVGVWTIGYGTTRGVTRYMTITVEQAERMLSNDIQRFEPELDRLAKVPLNQNQWDALMSFVYNLGAANLASSTLLDLLNKGDYQGAADQFPHWVNAGGKRLDGLVKRRAAERALFLEPLS
P. aeruginosa [2]
  MIC (μg/mL) in CAA: 2 µg/mL
  MIC (μg/mL in CAA/HuS): 2 µg/mL
  MIC value in CAA/HuS: 2 µg/mL
[3]
  MBEC: 2 µg/mL
P. aeruginosa [4]; [6]
  Log10 CFU/mL T = 3 hr: 4.0‡ Log10 CFU/mL
P. aeruginosa [4]; CAA/HuS
  Log10 CFU/mL T = l hr: 5.9 Log10 CFU/mL
P. aeruginosa [4]; [7]
  Log10 CFU/mL T = 3 hr: <3.7‡ Log10 CFU/mL
  Log10 CFU/mL T = l hr: 6.7 Log10 CFU/mL

B2: GN156: Modified GN4, addition of N-terminal peptide GPRRPRRPGRRAPV, SEQ ID NO: 6 (protein)
chain: GPRRPRRPGRRAPVMRTSQRGIDLIKSFEGLRLSAYQDSVGVWTIGYGTTRGVTRYMTITVEQAERMLSNDIQRFEPELDRLAKVPLNQNQWDALMSFVYNLGAANLASSTLLKLLNKGDYQGAADQFPRWVNAGGKRLDGLVKRRAAERALFLEPLS
P. aeruginosa [2]
  MIC (μg/mL) in CAA: 32 µg/mL
  MIC (μg/mL in CAA/HuS): 2 µg/mL
[3]
  MBEC: 0.5 µg/mL
P. aeruginosa [4]; [6]
  Log10 CFU/mL T = 3 hr: <3.7‡ Log10 CFU/mL
P. aeruginosa [4]; CAA/HuS
  Log10 CFU/mL T = l hr: 5.7 Log10 CFU/mL
P. aeruginosa [4]; [7]
  Log10 CFU/mL T = 3 hr: <3.7‡ Log10 CFU/mL
  Log10 CFU/mL T = l hr: 5.7 Log10 CFU/mL

B3: GN54: Modified GN4, N-terminal peptide KRKKRKKRK with linker, SEQ ID NO: 8 (protein)
chain: KRKKRKKRKAGAGAGAGAGAGAGAGASMRTSQRGIDLIKSFEGLRLSAYQDSVGVWTIGYGTTRGVTRYMTITVEQAERMLSNDIQRFEPELDRLAKVPLNQNQWDALMSFVYNLGAANLASSTLLKLLNKGDYQGAADQFPRWVNAGGKRLDGLVKRRAAERALFLEPLS
P. aeruginosa [2]
  MIC (μg/mL) in CAA: 64 µg/mL
  MIC (μg/mL in CAA/HuS): 2 µg/mL
  MIC value in CAA/HuS: 2 µg/mL
P. aeruginosa [2]; human serum
  activity in serum: does have activity in serum

B4: GN150: Native lysin, WP_034684053.1/VanY, SEQ ID NO: 19 (protein, listed as Acinetobacter sp.)
chain: MSFKLGKRSLSNLEGVHPDLIKVVKRAIELTECDFTVTEGLRSKERQAQLLKEKKTTTSNSRHLTGHAVDLAAWVNNTVSWDWKYYYQIADAMKKAASELNVSIDWGGDWKKFKDGPHFELTWSKYPIKGAS
P. aeruginosa [2]
  MIC (μg/mL) in CAA: 2 µg/mL
  MIC (μg/mL in CAA/HuS): 32 µg/mL
[5]
  synergy with antibiotics in the checkerboard assay: synergize with a range of antibiotics
[5]; lysin + amikacin
  FICI, Amikacin: 0.313
[5]; lysin + azithromycin
  FICI, Azithromycin: 0.125
[5]; lysin + aztreonam
  FICI, Aztreonam: 0.188
[5]; lysin + ciprofloxacin
  FICI, Ciprofloxacin: 0.250
[5]; lysin + colistin
  FICI, Colistin: 0.094
[5]; lysin + fosfomycin
  FICI, Fosfomycin: 0.375
[5]; lysin + gentamicin
  FICI, Gentamicin: 0.375
[5]; lysin + imipenem
  FICI, Imipenem: 0.375
[5]; lysin + piperacillin
  FICI, Piperacillin: 0.500
[5]; lysin + rifampicin
  FICI, Rifampicin: 0.094
[5]; lysin + tobramycin
  FICI, Tobramycin: 0.500
[3]
  MBEC: 0.25 µg/mL
P. aeruginosa [4]; 3-hour timepoint, 10 μg/mL, in either CAA/HuS or HEPES buffer
  bactericidal activity in the time-kill assay format: bactericidal activity
P. aeruginosa [4]; [6]
  Log10 CFU/mL T = 3 hr: <3.7‡ Log10 CFU/mL
P. aeruginosa [4]; CAA/HuS
  Log10 CFU/mL T = l hr: 6.0 Log10 CFU/mL
P. aeruginosa [4]; [7]
  Log10 CFU/mL T = 3 hr: <3.7‡ Log10 CFU/mL
  Log10 CFU/mL T = l hr: 5.7 Log10 CFU/mL

B5: GN94: Modified GN37, N-terminal peptide KFFKFFKFFK with linker, SEQ ID NO: 14 (protein)
chain: KFFKFFKFFKAGAGAGAGAGAGAGAGASMTYTLSKRSLDNLKGVHPDLVAVVHRAIQLTPVDFAVIEGLRSVSRQKELVAAGASKTMNSRHLTGHAVDLAAYVNGIRWDWPLYDAIAVAVKAAAKELGVAIVWGGDWTTFKDGPHFELDRSKYR
P. aeruginosa [2]
  MIC (μg/mL) in CAA: 16 µg/mL
  MIC (μg/mL in CAA/HuS): 2 µg/mL
  MIC value in CAA/HuS: 2 µg/mL
[3]
  MBEC: 2 µg/mL
P. aeruginosa [4]; [6]
  Log10 CFU/mL T = 3 hr: <3.7‡ Log10 CFU/mL
P. aeruginosa [4]; CAA/HuS
  Log10 CFU/mL T = l hr: 6.4 Log10 CFU/mL
P. aeruginosa [4]; [7]
  Log10 CFU/mL T = 3 hr: <3.7‡ Log10 CFU/mL
  Log10 CFU/mL T = l hr: 6.0 Log10 CFU/mL
